In the series the test system is MutS (Cy3-labeled) (Escherichia coli). The experiment in a line: smFRET (TIRF). To be noted: GT mismatch, amino-dT, smTIRF FRET on surface-immobilized plasmids, imaging buffer and temperature not in material, dCas9 RNP assembled in 30 mM HEPES, 150 mM KCl, pH 7.5, MutS with …; for binding signal (fold lower k-1 vs RC): ATP.

As to “pUC19HL_MutS GT mismatch, positively supercoiled (+)SC”, for the setting “k1 similar to RC, positively supercoiled by 9N reverse gyrase, average sigma +0.03”, the binding signal (fold lower k-1 vs RC) is 1.3. Besides, where the note is “positively supercoiled by 9N reverse gyrase, average sigma +0.03”, the binding signal was 0.107 s-1 (koff). With “pUC19HL_MutS GT mismatch, relaxed circular (RC)”, the binding signal (covalently closed relaxed circle) was 0.204 s-1 (koff).

For the substance “pUC19HL_MutS GT mismatch, negatively supercoiled (-)SC”, for the setting “k1 ~1.3x higher than RC, negatively supercoiled by gyrase, average sigma -0.07”, the binding signal (fold lower k-1 vs RC) was found to be 1.3. In addition, the binding signal (negatively supercoiled by gyrase, average sigma -0.07) was 0.075 s-1 (koff).

The values are drawn from PMC12205362.
